According to patent publication US12286631B2, “Riboswitch modulated gene therapy for retinal diseases” (The Medical College of Wisconsin, Inc., priority 2017, dated 2025):

Key:
[1] = system: HEK293T cells; assay: Dynamic range / dose-responsiveness to activating ligand, firefly luciferase constructs; format: cell-based; settings: for Response to ligand in cell culture (firefly luminescence) / Dynamic Range: HEK293T cells; for Response to ligand in cell culture (firefly luminescence): dual luciferase assay, tetracycline or theophylline; for Dynamic Range: optimal copy number, 0-100 μM activating ligand; for Dynamic range compared with similar riboswitches known in the art: 0-100 μM respective ligand, with target miRNA sequence
Method: The riboswitches were evaluated in HEK293T cells to determine optimal copy number (largest dynamic range) and dose-responsiveness to its activating ligand using a dual luciferase assay. The ligand used were tetracycline and theophylline.
For determining dynamic range, constructs containing firefly luciferase containing the optimal copy number of the riboswitch were made. HEK293T cells were plated on day 1, and transfected on day 2 with 1 μg of plasmid DNA. Cells were treated with 0-100 μM of the ligand corresponding to the riboswitch and the luminescence was quantified on day 3 using plate reader.
Experiments as described in Example 2A were also carried out using the newly designed Tet-SLIM and Theo-SLIM switches including target miRNA sequence, as depicted in FIGS. 12A and 13A, respectively.

[2] = system: mouse retina; assay: In vivo GFP fluorescence (cSLO) after intravitreal rAAV2 GFP-riboswitch cassette and ligand gavage; design: species or system C57Bl/6j mice; settings: delivered to the mouse retina using a rAAV2 vector
Method: Next, the optimal copy number of each riboswitch was cloned into a rAAV GFP reporter cassette and packaged in an AAV2 capsid. Each GFP-riboswitch cassette was injected intravitreally into C57Bl/6j mice in combination with an AAV2 control vector harboring a non-inducible mCherry reporter gene. Four weeks post-injection, mCherry and GFP fluorescence levels were quantified in vivo using a custom ‘Multiline’ confocal scanning laser ophthalmoscope (cSLO). Mice subsequently received a dose of 1000 mg/kg of its activating ligand (tetracycline, theophylline), and fluorescence levels were quantified 2 and 24 hours post-gavage.

[3] = system: HEK293T cells; assay: Optimal copy number of riboswitch, GFP plasmids, fluorescence plate reader; format: cell-based; settings: plasmids with 0-4 copies of riboswitch, GFP transgene
Method: The protocol for both assays are outlined in FIGS. 8A and 8B. For determining optimal copy numbers, plasmids containing 0-4 copies of each riboswitch were created with the transgene as green fluorescence protein (GFP) for readout. HEK293T cells were plated in a 12-well plate and on day 2 transfected with 1 μg of each plasmid DNA. On day 3, cells were observed by fluorescent microscopy (excitation 467-498 nm) and fluorescence was quantified using a plate reader (488 nm excitation 520 nm emission).
As depicted in FIG. 9A, L2Bulge18tc riboswitch was one ON-type riboswitch tested. The cells were treated with 0 μM, 25 μM, 50 μM, 75 μM, and 100 µM of tetracycline (ligand), with the fluorescent microscopy results shown in FIG. 9D.
L2Bulge 9 was also tested (using activating ligand Theophylline), and the optimal copy number was determined to be 3.

Molecule	Response to ligand in cell culture (firefly luminescence) [1]	Response to ligand in vivo [2]	Optimal Copy number [3]	Dynamic Range [1]	Dynamic range compared with similar riboswitches known in the art [1]
Theo6HDV: Theophylline OFF switch riboswitch, SEQ ID NO: 13 (nucleic acid) ATGGCCGGCATGGTCCCAGCCTCCTCGCTGGCGCCGGCTGGGCAACCACATACCAGCCGAAAGGCCCTTGGCAGGTGGGCGAATGGGACGCACAAATCTCTCTAGCTTCCCAGAGAGAAGCGAGAGAAAAGTGGCTCTC	responded to a ligand	responded to a ligand	–	–	–
L2Bulge18tc: Tetracycline ON switch riboswitch, SEQ ID NO: 12 (nucleic acid) CTCGAGGCGATCGCAAACAAACAAAGCTGTCACCGGATGTGCTTTCCGGTCTGATGAGTCCGTTGTCCAAAACATACCAGATTTCGATCTGGAGAGGTGAAGAATTCGACCACCTGGACGAGGACGGAGGACGAAACAGCAAAAAGAAAAATAAAAATTAATTAATCTTGGGCCC	responded to a ligand	responded to a ligand	3	4.3-fold	–
K19: Tetracycline ON switch riboswitch, SEQ ID NO: 15 (nucleic acid) CAAACAAACAAAGGCGCGTCCTGGATTCGTGGTAAAACATACCAGATTTCGATCTGGAGAGGTGAAGAATACGACCACCTGTAGTATCCAGCTGATGAGTCCCAAATAGGACGAAACGCGCTAAACAAACAAAC	responded to a ligand	responded to a ligand	1	1.5-fold	–
L2Bulge9: Theophylline-responsive riboswitch, SEQ ID NO: 11 (nucleic acid) CTCGAGGCGATCGCAAACAAACAAAGCTGTCACCGGATGTGCTTTCCGGTCTGATGAGTCCGTTGTCCAATACCAGCATCGTCTTGATGCCCTTGGCAGTGGATGGGGACGGAGGACGAAACAGCAAAAAGAAAAATAAAAATTTTTTTTTTAATTAATCTTGGGCCC	responded to a ligand	responded to a ligand	3	1.7-fold	–
GuaM8HDV: Guanine OFF switch riboswitch, SEQ ID NO: 14 (nucleic acid) ATGGCCGGCATGGTCCCAGCCTCCTCGCTGGCGCCGGCTGGGCAATGCTATAATCGCGTGGATATGGCACGCAAGTTTCTACCGGGCACCGTAAATGTCCGACTAGTAGCGAATGGGACGCACAAATCTCTCTAG	responded to a ligand	responded to a ligand	–	–	–
Theo-SLIM: theophylline-responsive self-targeting ligand inactivating microRNA (SLIM) switch, SEQ ID NO: 1 (nucleic acid) CGTATCAGCAGGTCCCATAAGCTTTCGACAATTAACGAGTGTGTACTCGTTCTATCATCTCACAGTTAAAGTCGGGAGAATAGGAGCCGCACGGGTCCTGATACCAGCGTGAGCGGAGAGAATCTTCTTTCTGTCTATTAGTGAAGCCACAGATGTAATAGACAGAAAGAAGATTCTCTCCGCCTACGCCCTTGGCAGCACCGTACGGTTCGATC	–	–	1	10.9-fold	increased dynamic range
Tet-SLIM: tetracycline-responsive self-targeting ligand inactivating microRNA (SLIM) switch, SEQ ID NO: 17 (nucleic acid) CTAGCACGGGTCCCTAAAACATACCGTGAGCGCGAAAGCGCCCCCATTTTGAGTTAGTGAAGCCACAGATGTAACTCAAAATGGGGGCGCTTTCCCGCCTACGGAGAGGTGAAGAATACGACCACCTAGAAGCTTATTGGTACATGATAACACCCCAAAATCGAAGCACTTCAAAAACACCCCAAAATCGAAGCACTTCAAAAACACCCCAAAATCGAAGCACTTCAAAAACACCCCAAAATCGAAGCACTTCAGTCTCAGGCATCGTACGATGTCGACCTGCAGG	–	–	1	2.3-fold	increased dynamic range
